Values of other authors in PMC6705211.
Like-named read-outs stand apart in the source and are kept apart here.

How the values were obtained:
H3K9me3 [1] = target: H3K9me3 (UniProt P68431)
H3K9me3 [2] = target: H3K9me3 (UniProt P68431); remark: listed apart in the source
H3K9me3 [3] = target: H3K9me3 (UniProt P68431); remark: listed apart in the source
H3K9me3 [4] = target: H3K9me3 (UniProt P68431); remark: listed apart in the source

Sequence of HP1β (P83916 whole entry): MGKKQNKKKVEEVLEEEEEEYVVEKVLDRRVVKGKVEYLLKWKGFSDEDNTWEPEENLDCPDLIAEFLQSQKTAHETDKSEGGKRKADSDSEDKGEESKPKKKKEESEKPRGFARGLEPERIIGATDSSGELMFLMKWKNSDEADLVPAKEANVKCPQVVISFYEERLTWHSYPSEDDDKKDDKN
Sequence of HP1γ (Q13185 2-183): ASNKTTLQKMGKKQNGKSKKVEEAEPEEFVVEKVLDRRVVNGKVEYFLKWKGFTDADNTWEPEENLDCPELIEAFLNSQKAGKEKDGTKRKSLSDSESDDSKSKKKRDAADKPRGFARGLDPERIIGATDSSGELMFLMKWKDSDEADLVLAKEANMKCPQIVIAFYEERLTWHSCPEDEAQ
Sequence of HP1a chromodomain (P05205 24-82): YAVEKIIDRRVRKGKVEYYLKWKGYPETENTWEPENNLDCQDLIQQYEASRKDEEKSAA
Sequence of HP1α chromodomain (P45973 20-78): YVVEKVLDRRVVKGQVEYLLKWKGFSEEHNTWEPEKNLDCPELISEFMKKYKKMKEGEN

HP1a chromodomain (from UniProt P05205)
Kd (H3K9me3 [1]): 4 µM

HP1α chromodomain (from UniProt P45973)
Kd (H3K9me3 [2]): 13 µM

HP1β (from UniProt P83916)
Kd (H3K9me3 [3]): 3 µM

HP1γ (from UniProt Q13185)
Kd (H3K9me3 [4]): 7 µM
